Experimental data taken from patent US20200115433A1.

Target: …-HLA-A2 complex (human)
Experiment: SPR BIAcore T200, single-cycle kinetics, pMHC on chip

Kd: 0.425 nM
B1: single chain TCR s-10 (TCR)
chain: SQQGEEDPQALSIQEGENVTINCSYKGWAQNRQNSGRGLVHLILIRSNEREKHSGRLRVTLDTSKKSSSLEITAVRPADTASYFCATDANARWDFGKGTRLHILPGGGSEGGGSEGGGSEGGGSEGGTGDAGVTQSPRHESVEMGQEVTLRCKPISGHDYLFWYRQTPKRGLELLIYFNHGAVIDDSGMPEDRFSAKMPNASFSTLKIQPVEPRDSAVYFCASQLGSNEQYFGPGTRLTVT
